Experimental findings from PMC2638020, “Large-Scale Structural Analysis of the Classical Human Protein Tyrosine Phosphatome” (Cell, 2009) are described below.

This data set concerns the molecule itself. The data set can be described thus: AUC; sedimentation equilibrium; 0.2, 0.4 and 0.8 mg/ml, 7500 and 10,000 rpm; global fit with a self-association model; dimer to monomers.

B1: RPTPγ tandem phosphatase domains (D1-D2), wild type (domain or fragment)
chain: not shown
notes: RPTPγ (PTPRG), human, tandem catalytic domains D1-D2; PDB 2NLK); Vector, tag state and construct limits are in the Supplemental Data; also called PTPRG; RPTPγ D1-D2; source: E. coli BL21(DE3), purified
With B1, binding was put at a Kd of 3.5 ± 0.3 µM and the “stoichiometry N” value stood at 2.
